We go through one molecule from patent publication US20200255487A1, “A Cell-Based Seeding Assay for Huntingtin Aggregation” (THE REGENTS OF THE UNIVERSITY OF CALIFORNIA, priority 2017, published 2020).

The test system of the test is HTT-ΔN17-46Q-GFP. Description: cell-based HTT seeding assay (ΔN17-1E cells). The note with it: ΔN17-1E (HEK293) cells; substance applied as seed; FIG. 4. On the set-up: species or system human. From the text:
Described herein is the development of a cell-based HTT seeding assay. A DNA construct encoding Exon1 of mutant human HTT with a 46 polyQ repeat was designed (FIG. 1C). This mutant HTT was engineered to delete amino acid residues 2-16 and was fused with a green fluorescent protein (GFP) at its C-terminus, named HTT-ΔN17-46Q-GFP hereafter. The HTT-ΔN17-46Q-GFP was then cloned into a pcDNA3 vector and transfected into HEK293 cells. Clones of stably transfected cells expressing HTT-ΔN17-46Q-GFP were selected to generate individual cell lines. Expression of the transgene in the cell lines was characterized to confirm its morphology, expression level and subcellular localization. Line 1E, named ΔN17-1E cells, was selected based on it moderate transgene expression with minimal protein aggregates at the baseline. Based on this cell line, a cell-based HTT seeding assay was developed. Extracellular application of preformed HTT aggregates or biosamples from HD patients as “seeds”, to ΔN17-1E cells could induce intracellular aggregation of HTT-ΔN17-46Q-GFP proteins (FIG. 1 through FIG. 3). […] Currently, the assay has been optimized to be performed in a high-throughput format, making it more capable with large quantity of samples. […]

B1: preformed mHTT-exon1 seeds: preformed mHTT-exon1 seeds derived from in vitro formed mHTT fibrils by sonication (protein)
chain: MATLEKLMKAFESLKSFQQQQQQQQQQQQQQQQQQQQQPPPPPPPPPPPQLPQPPPQAQPLLPQPQPPPPPPPPPPGPAVAEEPLHRP
As for B1, the “induction of intracellular HTT-ΔN17-46Q-GFP aggregation by extracellularly applied seeds” value is “forms HTT-ΔN17-46Q-GFP aggregates”.
